Test results reported in patent publication US6465423.

How the values were obtained:
[1] = target: acid-labile sub-unit (ALS) of insulin like growth factor binding protein complex (human) (UniProt P35858); assay: competition of acidified-neutralized serum with cross-linked BP-53-IGF-I tracer in the routine ALS assay
[2] = target: endogenous BP-53 of human serum (human) (UniProt P17936); assay: DEAE-Sephadex peaks A and B mixed for 60 min at 22° C, Superose-12, BP-53 RIA
[3] = target: IGF affinity column loaded with BP-53 (BP-53 non-covalently bound to agarose-IGF) (human) (UniProt P17936); assay: affinity chromatography of DEAE-Sephadex ALS fractions on the IGF column loaded with BP-53

Chain of acid-labile sub-unit (ALS) of insulin like growth factor binding protein complex (human) (P35858 28-605, one chain of several): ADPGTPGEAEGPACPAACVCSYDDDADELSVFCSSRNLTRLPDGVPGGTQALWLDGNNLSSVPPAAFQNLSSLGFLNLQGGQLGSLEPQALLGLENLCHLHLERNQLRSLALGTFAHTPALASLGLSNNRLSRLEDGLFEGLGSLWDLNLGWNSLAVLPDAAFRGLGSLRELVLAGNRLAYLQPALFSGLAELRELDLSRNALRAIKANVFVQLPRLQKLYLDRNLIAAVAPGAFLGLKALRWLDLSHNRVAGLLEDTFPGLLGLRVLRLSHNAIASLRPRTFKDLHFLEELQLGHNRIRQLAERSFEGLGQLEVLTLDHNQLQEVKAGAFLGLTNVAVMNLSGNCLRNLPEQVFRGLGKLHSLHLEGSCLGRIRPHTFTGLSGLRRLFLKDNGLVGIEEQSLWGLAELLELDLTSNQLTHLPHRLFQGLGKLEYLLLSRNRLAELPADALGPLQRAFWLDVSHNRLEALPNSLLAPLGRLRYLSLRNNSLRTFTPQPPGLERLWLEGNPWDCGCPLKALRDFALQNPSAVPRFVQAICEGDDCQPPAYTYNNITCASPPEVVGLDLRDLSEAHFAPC
Chain of acid-labile sub-unit (ALS) of insulin like growth factor binding protein complex (P35858 28-605, one chain of several): as above

IC50 [1] [µg/mL] | concentration for full displacement [1] [µg/mL] | percent of BP-53 activity shifted from 30-60K to 150K [2] [%] | percent of ALS activity retained [3] [%] | Substance
0.2 to 0.25 | 1 | – | – | endogenous BP-53 of human serum (from UniProt P17936 28-291)
– | – | > 50 | > 90 | acid-labile sub-unit (ALS) of insulin like growth factor binding protein complex (from UniProt P35858 28-605)
